Test results taken from patent US6890738.

Target: prolactin receptor on Nb2 T lymphoma cells (rat) (UniProt P05710)
Test: cell-based or functional assay

Sequence of UniProt P05710 (P05710 20-610): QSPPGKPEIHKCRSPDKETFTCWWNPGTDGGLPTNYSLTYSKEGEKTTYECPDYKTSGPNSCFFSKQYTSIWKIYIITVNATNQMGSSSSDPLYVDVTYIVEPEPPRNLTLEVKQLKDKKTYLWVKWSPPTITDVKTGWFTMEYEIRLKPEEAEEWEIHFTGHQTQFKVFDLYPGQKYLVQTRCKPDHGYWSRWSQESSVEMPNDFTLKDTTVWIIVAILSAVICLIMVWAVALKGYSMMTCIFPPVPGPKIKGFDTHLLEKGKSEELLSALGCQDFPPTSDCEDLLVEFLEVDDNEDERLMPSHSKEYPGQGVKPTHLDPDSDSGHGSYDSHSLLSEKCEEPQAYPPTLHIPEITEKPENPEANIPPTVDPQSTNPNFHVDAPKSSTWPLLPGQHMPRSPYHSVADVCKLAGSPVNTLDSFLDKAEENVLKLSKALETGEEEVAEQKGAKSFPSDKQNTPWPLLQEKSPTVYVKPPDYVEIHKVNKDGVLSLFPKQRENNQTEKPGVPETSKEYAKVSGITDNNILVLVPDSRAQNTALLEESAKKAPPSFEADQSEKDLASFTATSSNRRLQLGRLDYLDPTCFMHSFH

Substance	inhibition of the Nb2 cell growth response to 400 pg/ml wild-type PRL by 200 pg/ml aspartate mutant (MTS assay)	reduction of the Nb2 cell growth response to 800 pg/ml wild-type PRL by 200 pg/ml glutamate mutant (MTS assay) (fraction of growth response)
human prolactin aspartate mutant (serine 179 substituted with aspartate) (from UniProt P01236 29-227) (ligand)	75%	–
human prolactin glutamate mutant (serine 179 substituted with glutamate) (from UniProt P01236 29-227) (ligand)	–	0.5
